# Experimental data: patent US10465009B2, “BCMA antigen binding proteins” (Amgen Inc., priority 2012, dated 2019)
# T1: BCMA (Homo sapiens, UniProt Q02223, N81S)
# T1 construct: cells transiently transfected to express full length BCMA, TACI, or BAFF-R; expressed in transfected cells
# T1 sequence (Q02223 1-184 N81S): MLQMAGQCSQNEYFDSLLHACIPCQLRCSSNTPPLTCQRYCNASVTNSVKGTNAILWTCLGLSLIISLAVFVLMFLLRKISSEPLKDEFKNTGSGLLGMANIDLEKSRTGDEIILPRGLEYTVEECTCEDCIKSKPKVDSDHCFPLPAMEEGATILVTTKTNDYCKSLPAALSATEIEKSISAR
# T2: huBCMA on H929 cells (Homo sapiens, UniProt Q02223, N81S)
# T2 construct: endogenous in cells; host or cells: H929 human multiple myeloma cell line
# T2 sequence (Q02223 1-184 N81S): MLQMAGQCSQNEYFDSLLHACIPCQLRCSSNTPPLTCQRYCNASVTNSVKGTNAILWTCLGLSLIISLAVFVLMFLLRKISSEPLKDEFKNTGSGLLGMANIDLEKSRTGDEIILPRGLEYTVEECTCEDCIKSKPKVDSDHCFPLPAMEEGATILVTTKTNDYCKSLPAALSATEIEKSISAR
# B1: 1E1: fully human anti-huBCMA mAb, Vh SEQ ID NO:212, Vl SEQ ID NO:246 (antibody, V domains shown)
# VH: QVQLVQSGAEVKKPGASVKVSCKASGYTFTGHYIHWVRQAPGQGLEWMGWIYPNSGGTNYAQKFQGRVTMTRDTSISTAYMELSRLRSDDSAVYYCAREGMVTGDYYYYRMDVWGQGTTVIVSS
# VL: QPVLTQPPSASASLGASVTLTCSLSSGYSNYKVDWYQQRPGKGPRFVMRVGIGGIVGSKGDGIPDRFSVLGSGLNRYLTIKNIQEEDESDFHCGADHGSGNNFVYVFGTGTKVTVLG
# Tests used:
# [1] = molecular target: T1, BCMA; assay: FACS binding on cells transiently transfected to express full length BCMA; conditions: MFI vs negative control
# Protocol: An important criterion is exquisite selectivity for wild-type human BCMA expressed on the surface of cells. FACS binding on cells transiently transfected to express full length BCMA, TACI, or BAFF-R was performed using standard techniques. Approximately 40×10^6 of the transiently-transfected target cells were resuspended in a staining solution (2% goat serum, 1% rabbit serum, 0.02% azide in PBS) and aliquoted into round-bottom, 96-well plate (Corning Incorp., Acton, Mass.) as per the experiment design. The cells were incubated at 4 degrees celsius for 30 minutes to block non-specific sites. The antibodies were titrated into the staining solution. The cells were rinsed in a rinse solution (PBS+0.02% azide) by resuspending the cells in 200 ul/well. The cells were centrifuged at 1500 rpm at 4 degrees celsius for 7 minutes. The rinse solution was removed and the rinse step was repeated. The cells were resuspended in the appropriate antibody solution (see the matrix in TABLE 4) at 30 ul/well and incubated at 4 degrees celsius for 30 minutes. […] For the mouse IgG1 negative control and the two mouse antibodies (1.183 and 1.288), the secondary reagent was an anti-mouse IgG-PE conjugate (BD Pharmingen Cat. 550589). The cells/antibodies were rinsed as described above to remove excess/unbound antibody. […] Samples were read at 532 nm wavelength on FACS. […]
# [2] = molecular target: T2, huBCMA on H929 cells; assay: FACS binding to native BCMA on H929 myeloma cells; conditions: flow cytometry; muteins relative to parental 2A1
# Protocol: Approximately 10 to 40×10^6 of H929 myeloma cells were resuspended in a staining solution (2% goat serum, 1% rabbit serum, 0.02% azide in PBS) and aliquoted into round-bottom, 96-well plate (Corning Incorp., Acton, Mass.) as per the experiment design. The cells were incubated at 4 degrees celsius for 30 minutes to block non-specific sites. The antibodies were titrated into the staining solution. The cells were rinsed in a rinse solution (PBS+0.02% azide) by resuspending the cells in 200 ul/well. The cells were centrifuged at 1500 rpm at 4 degrees celsius for 7 minutes. The rinse solution was removed and the rinse step was repeated. […] The huIgG1 negative control's secondary reagent was a biotinylated anti-huIgG (Jackson Labs, Bar Harbor, Me., Cat. 109-065-098), followed by a streptavidin-phycoerythrin (SA-PE) conjugate (BD Pharmingen, San Diego, Calif., Cat. 554061). […] The cells/antibodies were rinsed as described above to remove excess/unbound antibody. […] Samples were read at 532 nm wavelength on FACS.
# To further characterize the engineered mutein antibodies, they were tested for the ability to bind BCMA by FACS analysis. […] The supernatants were removed and the cell pellets were resuspended in 0.2 mL/tube 4% paraformaldehyde in PBS and analyzed by flow cytometry
molecule,measurement,setting,value
B1,BCMA (FACS binding),[1],+ (A sample was considered positive for binding if the MFI was two times the negative control value)
same,binding to BCMA on H929 cells,[2],bound to human BCMA
